Our source for the percent reduction in binding (against wild type) values is doi:10.1101/2023.01.25.525455.

The target of experiment [1] is GFP-tagged VPS35L(I761G) (human) (UniProt Q7Z3J2). Description: co-IP.
The target in experiment [2] is GFP-tagged VPS35L with complete deletion of the β-hairpin (human) (UniProt Q7Z3J2). Nature of the experiment: co-IP.
Chain of GFP-tagged VPS35L with complete deletion of the β-hairpin (human) (Q7Z3J2 whole entry, stated change not applied): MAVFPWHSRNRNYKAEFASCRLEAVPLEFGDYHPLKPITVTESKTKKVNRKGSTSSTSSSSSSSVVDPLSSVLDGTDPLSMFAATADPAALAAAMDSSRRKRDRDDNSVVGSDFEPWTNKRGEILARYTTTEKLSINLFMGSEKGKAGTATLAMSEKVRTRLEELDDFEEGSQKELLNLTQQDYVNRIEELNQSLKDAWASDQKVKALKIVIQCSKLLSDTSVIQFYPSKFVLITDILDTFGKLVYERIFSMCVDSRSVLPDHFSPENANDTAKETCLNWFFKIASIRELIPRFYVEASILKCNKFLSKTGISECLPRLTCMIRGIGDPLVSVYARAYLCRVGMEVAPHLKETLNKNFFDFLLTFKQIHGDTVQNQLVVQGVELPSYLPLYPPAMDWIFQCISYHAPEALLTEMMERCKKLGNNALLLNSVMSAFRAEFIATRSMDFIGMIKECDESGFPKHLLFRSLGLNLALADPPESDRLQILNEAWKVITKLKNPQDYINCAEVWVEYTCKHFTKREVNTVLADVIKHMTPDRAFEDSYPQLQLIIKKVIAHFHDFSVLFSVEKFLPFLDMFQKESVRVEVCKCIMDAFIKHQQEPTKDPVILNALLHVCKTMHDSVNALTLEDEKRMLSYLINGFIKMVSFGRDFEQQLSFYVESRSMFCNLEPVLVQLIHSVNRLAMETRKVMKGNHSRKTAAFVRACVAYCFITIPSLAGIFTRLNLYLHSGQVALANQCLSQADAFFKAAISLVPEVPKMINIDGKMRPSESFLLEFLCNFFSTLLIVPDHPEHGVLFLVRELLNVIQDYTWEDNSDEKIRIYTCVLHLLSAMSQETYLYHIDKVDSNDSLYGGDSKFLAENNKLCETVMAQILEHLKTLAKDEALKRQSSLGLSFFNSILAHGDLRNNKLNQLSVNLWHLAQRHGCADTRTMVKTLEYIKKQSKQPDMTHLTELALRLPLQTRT

Chain of GFP-tagged VPS35L(I761G) (human) (Q7Z3J2 whole entry I761G): as the sequence (Q7Z3J2 whole entry, stated change not applied) above, with I761G counted along it

With “VPS29 (endogenous, HEK293T) (from UniProt Q9UBQ0 1-182) (natural protein)”, the percent reduction in binding (against wild type) in experiment [1] and in experiment [2] was > 50% each time.
